Here are results for one molecule from WO2017015008A1 (dated 2017).

Experiment [1] addresses T1, human HER3 ECD as shown in SEQ ID NO: 23 (human, UniProt P21860 20-643).
T1 construct: also called soluble HER3-ECD
Description: SPR (Biacore), antibody captured on Protein A, soluble HER3-ECD as analyte, 37°C, 1:1 model.

Experiment [2] has as its target T2, Rhesus mature HER3-ECD (rhesus monkey, UniProt H9ERZ8 20-643).
T2 construct: extracellular domain; Bought protein; also called Rhesus HER3-ECD; cynomolgus monkey HER3-ECD
The experiment is described as above.

Experiment [3] addresses T3, mouse mature HER3 ECD as shown in SEQ ID NO: 24 (mouse, UniProt Q61526 20-641).
T3 construct: also called mouse HER3 ECD; mouse soluble HER3-ECD
The description is as above.

In experiment [4] the target is T1, human HER3 ECD as shown in SEQ ID NO: 23. Description: SPR (Biacore), antibody captured on Protein A, soluble HER3-ECD as analyte. (In general: Surface plasmon resonance follows binding to a sensor surface in real time, without labels.)
Experiment [5] concerns the target T2, Rhesus mature HER3-ECD. The experiment is described as above.
In experiment [6] the target is T3, mouse mature HER3 ECD as shown in SEQ …. The experiment is described as above.

T1 sequence (P21860 other isoform, or with tags, fused parts or gaps, form in doubt): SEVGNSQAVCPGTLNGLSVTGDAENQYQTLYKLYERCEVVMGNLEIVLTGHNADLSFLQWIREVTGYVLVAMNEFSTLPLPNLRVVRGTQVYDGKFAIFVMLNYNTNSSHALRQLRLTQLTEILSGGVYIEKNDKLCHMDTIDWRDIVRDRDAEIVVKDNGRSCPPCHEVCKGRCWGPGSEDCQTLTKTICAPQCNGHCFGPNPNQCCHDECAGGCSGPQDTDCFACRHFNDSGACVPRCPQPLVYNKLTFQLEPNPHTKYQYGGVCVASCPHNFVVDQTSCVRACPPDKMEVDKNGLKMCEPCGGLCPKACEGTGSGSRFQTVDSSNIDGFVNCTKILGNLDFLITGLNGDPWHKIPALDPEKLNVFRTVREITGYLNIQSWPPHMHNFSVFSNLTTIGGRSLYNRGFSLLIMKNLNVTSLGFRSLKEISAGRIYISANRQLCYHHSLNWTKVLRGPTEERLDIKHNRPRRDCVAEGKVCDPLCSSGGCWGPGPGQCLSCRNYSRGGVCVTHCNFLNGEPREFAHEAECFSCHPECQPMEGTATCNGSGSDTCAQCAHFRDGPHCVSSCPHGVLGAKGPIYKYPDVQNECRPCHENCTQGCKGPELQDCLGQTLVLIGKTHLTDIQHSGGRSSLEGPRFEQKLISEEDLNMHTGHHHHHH
T2 sequence (H9ERZ8 entry or part of it): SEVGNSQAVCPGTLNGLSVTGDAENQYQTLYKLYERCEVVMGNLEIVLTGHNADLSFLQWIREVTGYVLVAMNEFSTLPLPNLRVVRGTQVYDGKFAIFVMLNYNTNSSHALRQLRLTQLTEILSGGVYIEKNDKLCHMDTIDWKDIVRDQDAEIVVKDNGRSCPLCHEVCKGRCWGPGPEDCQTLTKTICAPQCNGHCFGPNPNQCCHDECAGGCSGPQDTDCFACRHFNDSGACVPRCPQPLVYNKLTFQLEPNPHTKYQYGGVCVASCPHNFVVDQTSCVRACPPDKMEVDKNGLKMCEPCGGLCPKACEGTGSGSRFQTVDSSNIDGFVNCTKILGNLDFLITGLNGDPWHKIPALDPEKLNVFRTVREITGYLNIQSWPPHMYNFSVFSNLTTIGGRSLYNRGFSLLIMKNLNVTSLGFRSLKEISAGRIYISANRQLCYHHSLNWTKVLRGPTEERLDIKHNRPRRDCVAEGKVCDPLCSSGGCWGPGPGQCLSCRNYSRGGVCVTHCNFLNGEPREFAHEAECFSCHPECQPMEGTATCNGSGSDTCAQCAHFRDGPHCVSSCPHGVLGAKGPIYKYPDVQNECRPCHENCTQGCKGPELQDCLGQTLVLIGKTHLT
T3 sequence (Q61526 20-641 limits assumed): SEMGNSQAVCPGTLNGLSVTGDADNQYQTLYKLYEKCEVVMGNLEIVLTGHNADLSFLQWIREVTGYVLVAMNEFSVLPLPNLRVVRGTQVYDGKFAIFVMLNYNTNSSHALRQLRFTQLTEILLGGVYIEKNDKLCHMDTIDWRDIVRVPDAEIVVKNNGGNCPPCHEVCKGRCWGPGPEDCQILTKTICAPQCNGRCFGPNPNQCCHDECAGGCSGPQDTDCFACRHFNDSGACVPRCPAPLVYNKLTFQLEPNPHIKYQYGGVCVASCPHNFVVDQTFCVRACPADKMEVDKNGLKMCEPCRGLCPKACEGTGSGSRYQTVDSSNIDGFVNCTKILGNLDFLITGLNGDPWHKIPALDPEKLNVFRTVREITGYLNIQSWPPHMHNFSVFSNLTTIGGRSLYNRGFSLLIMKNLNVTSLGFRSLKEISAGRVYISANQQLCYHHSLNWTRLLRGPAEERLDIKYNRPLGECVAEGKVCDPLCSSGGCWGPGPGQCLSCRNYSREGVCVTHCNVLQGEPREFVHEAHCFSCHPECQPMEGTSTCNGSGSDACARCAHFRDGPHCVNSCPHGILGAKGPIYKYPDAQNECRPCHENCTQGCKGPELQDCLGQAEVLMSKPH

B1: anti-HER3 Antibody A (antibody, human IgG1, kappa, V domains shown)
VH: EVQLVESGGGLVKPGGSLRLSCAASGFSLDTYTMIWVRQAPGKGLEWVGIIYVTYNTYYANWAKGRFTISRDDSKNTLYLQMNSLKTEDTAVYYCTRWGDQNGLDIWGQGTLVTVSS
VL: DIQMTQSPSSLSASVGDRVTITCQSSQRVYGNKNLAWYQQKPGKAPKLLIYFARTLASGVPSRFSGSGSGTDFTLTISSLQPEDFATYYCQGTYYGTNWYVGFGGGTKVEIKR
notes: IgG type; human IgG1 Fc with C-terminal lysine deletion is stated only in embodiment language
For the molecule B1, the dissociation constant Kd – broadly, a measure of binding affinity in units of concentration – in experiment [1] worked out at 1.6 nM; in the experiment with Rhesus mature HER3-ECD [2], 2.1 nM; in experiment [3] it was 3 nM. The binding stoichiometry (in experiment [4]; with Rhesus mature HER3-ECD [5]; in experiment [6]) was ~2 moles of ligand per mole of antibody in each case.
